We go through three molecules from article PMC7319049 (Nature, 2020).

To fix the notation:
T1: Swi1 (S. cerevisiae, UniProt P09547 1-1314)
T1 sequence: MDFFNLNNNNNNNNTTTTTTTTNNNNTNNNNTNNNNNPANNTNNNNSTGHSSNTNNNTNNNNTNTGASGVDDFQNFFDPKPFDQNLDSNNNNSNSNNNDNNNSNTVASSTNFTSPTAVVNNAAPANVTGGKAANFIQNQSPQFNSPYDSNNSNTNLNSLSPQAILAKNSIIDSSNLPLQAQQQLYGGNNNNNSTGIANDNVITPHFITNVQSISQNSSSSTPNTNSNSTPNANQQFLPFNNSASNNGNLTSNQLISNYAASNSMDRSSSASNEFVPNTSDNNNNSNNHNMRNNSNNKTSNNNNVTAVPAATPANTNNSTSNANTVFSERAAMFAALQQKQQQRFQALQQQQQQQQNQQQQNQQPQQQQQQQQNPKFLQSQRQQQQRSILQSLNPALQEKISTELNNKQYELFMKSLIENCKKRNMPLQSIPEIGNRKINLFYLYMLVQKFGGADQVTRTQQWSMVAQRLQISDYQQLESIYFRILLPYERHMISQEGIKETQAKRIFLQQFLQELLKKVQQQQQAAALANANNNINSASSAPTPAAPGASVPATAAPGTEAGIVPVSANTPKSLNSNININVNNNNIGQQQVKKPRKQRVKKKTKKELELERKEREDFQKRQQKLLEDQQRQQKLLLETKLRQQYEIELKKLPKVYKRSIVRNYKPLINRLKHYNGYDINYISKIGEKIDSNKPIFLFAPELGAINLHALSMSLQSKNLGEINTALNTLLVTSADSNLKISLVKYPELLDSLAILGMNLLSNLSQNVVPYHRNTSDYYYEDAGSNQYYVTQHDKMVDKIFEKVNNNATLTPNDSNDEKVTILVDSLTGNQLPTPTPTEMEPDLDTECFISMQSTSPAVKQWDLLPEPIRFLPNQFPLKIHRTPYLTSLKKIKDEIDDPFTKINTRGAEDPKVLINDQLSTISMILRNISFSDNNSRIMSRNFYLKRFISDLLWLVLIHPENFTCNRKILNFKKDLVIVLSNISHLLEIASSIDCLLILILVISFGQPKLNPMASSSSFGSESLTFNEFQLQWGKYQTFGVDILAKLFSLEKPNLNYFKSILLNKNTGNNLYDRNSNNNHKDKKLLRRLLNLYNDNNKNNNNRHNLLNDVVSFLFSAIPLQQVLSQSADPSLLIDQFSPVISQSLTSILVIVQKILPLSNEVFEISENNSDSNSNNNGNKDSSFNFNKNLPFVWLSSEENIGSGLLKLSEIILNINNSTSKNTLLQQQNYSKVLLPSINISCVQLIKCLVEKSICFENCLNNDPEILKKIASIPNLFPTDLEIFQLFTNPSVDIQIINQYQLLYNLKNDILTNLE

B1: Swp82 (natural protein)
chain: MLGEDEGNTVLEKGNNPSVKQGEVGAVFIVPKILIREHERVILKQILQILDQDELVQPPLDKFPYKKLELPKYIDELKTRDATNTSYKMIQLDAYGEKKVGSNGELFGGRHYLFNTFTFTAHMGVLLVLLQDVIKVLYQSNATHDEDEFIVQHDQILVMETSEEQTKFLAKNGVIPEESKGSFKYITARSAFVEFGASVIAGGQRIVDDYWESLAKKQNLSSHQRVFKLSTNLISKISLLRPSFQNNRISNANEISANTNNTCTISTSKFESQYPIVTEQPSAEIREAYIENFAKGEHISAIVPGQSISGTLELSAQFRVPRYHSKNSFQQALQMKAMDIPIGRHEELLAQYESQAPDGSASISLPNHIPSVNPSNKPIKRMLSSILDINVSSSKNKKSEENEMIKPMNKGQHKNNTSLNINGWKFESLPLKSAENSGKQQYYRGLPLYEKNTLLERLKQLTPNEIKELEHLHDAVFVNTGLQNVRKVRTKKWKKYWQYKAGIPIGLKRSQLDEFKNKYLKDVLAQTSVTTNFNEITNTDETITTKRVPNPNFLGNCNIKDFKPPYIYSHVNKVPQNVAGDKTAVKLDTEVKNTNANPVVATDPVAAKPDNLANFSNEVAMNN
B2: Snf12 (natural protein)
chain: MSKVMKPSNGKGSRKSSKAATPDTKNFFHAKKKDPVNQDKANNASQITPTVPHSHPSDMVIPDHLAELIPELYSFQQLVDSEKRLDHFIHLRNLHMKRMVAQWERSKLSQEFLYPHLNFPNVKFLRIFISNVSENQPWQMDTNNEADLMALENATWTMRIEGRLLDNVQANDPAREKFSSFIESIVVDFKNKENDNVPSTKFNAAPEENATEGPSDKKLNLNLPLQFSLPNGDNSTTTNTDQNNATMGEETAKKDMSSTTPKLESVKWQYDPNNPVDFDGLDIKRVGSENVECTISILRKSSPEEPFMSYSPQLTAIIGLKSGTSHDAIFSIYKYIHLNELLTNDESAFENLMGNRNNHNSNTSTSKMLDAASSQVSIVKLDTQLITLLPSSLKESSPDTMKLTDLLSLINSTHLLPLQPIEIDYTVRVDKASTYGELVLDIEVPDVNALKFNNTQRESQIGAAELNENARELEQIKPKIALQDKEITSVLSNLHESNKRYRFFKKISEDPVKALNECIASTSNALKVLSGDEGYNEDMVRRANFYKENEAMLRENIEVILSNGRM
B3: Swi3 (natural protein)
chain: MENTLGEGSTVNASVDVDQHGNDNNSDSNANAAVAGVANTDTAGEESQQQDESLKDEATVPNTRDAESEAITVTAKQQPTMQANKLDSQETPSTEESRAQNVFGQDNEDSDNLFGETESSVSNNEANTPSIPTNPVDNENNKPAIKEDSTIQDSNGDVKNMEDVKIQKEEEPENNTVIEGVKEESQPDENTKEMDEVEEDDEDDDQPMISPDNSIFGDTKSESKQLGNTSSVANTPSEIPDAHKAEQEDIIEKTESVDKKVDSGEERNEQEREIMNDHSKSANPKKTTITRVEPETFEIPQAHEIVIPSYSKWFNLEKIHSIEVQSLPEFFTNRIPSKTPEVYMRYRNFMVNSYRLNPNEYFSVTTARRNVSGDAAALFRLHKFLTKWGLINYQVDSKLLPKNIEPPLTSQYSTRHDAPRGLFPFESYKPSVQLPDMAKLKKMMNTSDSESTLYKYLKESKRKYDEITHPPSTTDDENGDKNDNGGKMNNEVSTSTSMTGDANLLEEGETSRPLKKVKILEQIDENWSKEDLQKLLKGIQEFGADWYKVAKNVGNKSPEQCILRFLQLPIEDKFLYGDGNGKGDNDNGLGPLKYAPHLPFSKSENPVLSTIAFLVGLVNPKTVQSMTQRAIQSAESIKSQKEEISDQKPIEHIKEGSEIAISSLGYRSHIFATNEERQMNFLTNELIRLQMEKLDAKLNHLKKLEKFMELERKTLERQQENLLIQRLNFNQNSSKIVNVLSKCLNLISDSNINNSSVAEKEEIRSQIDHFKSMLSKPETLSIGKNPFNKPNIETGENHNGQSISNENDVKPISIEAPQFYRYWSA

Assay in all cases: cryo-EM structure
The data set “Swi3” concerns the target B3.
In a further data set the target is Snf5 (S. cerevisiae, UniProt P18480 1-905).
A further data set deals with T1, Swi1.
A further data set has as its target Snf2 (S. cerevisiae, UniProt P22082 1-1703).
The data set “cryo-EM structure” deals with the molecule itself.

For orientation: stoichiometry N means a count of units in the complex or per binding partner.

Sequence of Snf5 (P18480 whole entry): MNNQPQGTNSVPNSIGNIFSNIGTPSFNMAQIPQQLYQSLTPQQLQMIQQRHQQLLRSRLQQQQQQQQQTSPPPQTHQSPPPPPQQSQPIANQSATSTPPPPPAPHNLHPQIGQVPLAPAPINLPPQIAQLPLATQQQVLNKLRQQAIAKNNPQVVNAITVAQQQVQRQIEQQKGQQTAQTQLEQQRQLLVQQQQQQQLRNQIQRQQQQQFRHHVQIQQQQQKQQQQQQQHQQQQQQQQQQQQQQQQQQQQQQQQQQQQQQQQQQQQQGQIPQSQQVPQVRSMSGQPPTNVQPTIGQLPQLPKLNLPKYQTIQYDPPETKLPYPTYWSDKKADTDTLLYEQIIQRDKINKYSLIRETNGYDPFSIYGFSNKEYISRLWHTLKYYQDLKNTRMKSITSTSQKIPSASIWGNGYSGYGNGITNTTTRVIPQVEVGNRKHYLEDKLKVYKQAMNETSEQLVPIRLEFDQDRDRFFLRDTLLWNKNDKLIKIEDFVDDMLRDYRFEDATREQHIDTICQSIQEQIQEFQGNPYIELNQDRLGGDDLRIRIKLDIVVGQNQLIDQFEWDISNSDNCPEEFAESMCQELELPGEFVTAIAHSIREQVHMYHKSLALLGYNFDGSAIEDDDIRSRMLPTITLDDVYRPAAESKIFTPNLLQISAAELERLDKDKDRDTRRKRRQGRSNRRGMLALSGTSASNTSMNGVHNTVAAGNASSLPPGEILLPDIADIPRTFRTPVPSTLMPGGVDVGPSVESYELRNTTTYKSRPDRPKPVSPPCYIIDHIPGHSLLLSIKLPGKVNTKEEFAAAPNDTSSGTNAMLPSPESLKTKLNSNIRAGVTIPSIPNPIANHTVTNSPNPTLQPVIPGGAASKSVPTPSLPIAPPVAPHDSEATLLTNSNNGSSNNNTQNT
Sequence of Snf2 (P22082 whole entry): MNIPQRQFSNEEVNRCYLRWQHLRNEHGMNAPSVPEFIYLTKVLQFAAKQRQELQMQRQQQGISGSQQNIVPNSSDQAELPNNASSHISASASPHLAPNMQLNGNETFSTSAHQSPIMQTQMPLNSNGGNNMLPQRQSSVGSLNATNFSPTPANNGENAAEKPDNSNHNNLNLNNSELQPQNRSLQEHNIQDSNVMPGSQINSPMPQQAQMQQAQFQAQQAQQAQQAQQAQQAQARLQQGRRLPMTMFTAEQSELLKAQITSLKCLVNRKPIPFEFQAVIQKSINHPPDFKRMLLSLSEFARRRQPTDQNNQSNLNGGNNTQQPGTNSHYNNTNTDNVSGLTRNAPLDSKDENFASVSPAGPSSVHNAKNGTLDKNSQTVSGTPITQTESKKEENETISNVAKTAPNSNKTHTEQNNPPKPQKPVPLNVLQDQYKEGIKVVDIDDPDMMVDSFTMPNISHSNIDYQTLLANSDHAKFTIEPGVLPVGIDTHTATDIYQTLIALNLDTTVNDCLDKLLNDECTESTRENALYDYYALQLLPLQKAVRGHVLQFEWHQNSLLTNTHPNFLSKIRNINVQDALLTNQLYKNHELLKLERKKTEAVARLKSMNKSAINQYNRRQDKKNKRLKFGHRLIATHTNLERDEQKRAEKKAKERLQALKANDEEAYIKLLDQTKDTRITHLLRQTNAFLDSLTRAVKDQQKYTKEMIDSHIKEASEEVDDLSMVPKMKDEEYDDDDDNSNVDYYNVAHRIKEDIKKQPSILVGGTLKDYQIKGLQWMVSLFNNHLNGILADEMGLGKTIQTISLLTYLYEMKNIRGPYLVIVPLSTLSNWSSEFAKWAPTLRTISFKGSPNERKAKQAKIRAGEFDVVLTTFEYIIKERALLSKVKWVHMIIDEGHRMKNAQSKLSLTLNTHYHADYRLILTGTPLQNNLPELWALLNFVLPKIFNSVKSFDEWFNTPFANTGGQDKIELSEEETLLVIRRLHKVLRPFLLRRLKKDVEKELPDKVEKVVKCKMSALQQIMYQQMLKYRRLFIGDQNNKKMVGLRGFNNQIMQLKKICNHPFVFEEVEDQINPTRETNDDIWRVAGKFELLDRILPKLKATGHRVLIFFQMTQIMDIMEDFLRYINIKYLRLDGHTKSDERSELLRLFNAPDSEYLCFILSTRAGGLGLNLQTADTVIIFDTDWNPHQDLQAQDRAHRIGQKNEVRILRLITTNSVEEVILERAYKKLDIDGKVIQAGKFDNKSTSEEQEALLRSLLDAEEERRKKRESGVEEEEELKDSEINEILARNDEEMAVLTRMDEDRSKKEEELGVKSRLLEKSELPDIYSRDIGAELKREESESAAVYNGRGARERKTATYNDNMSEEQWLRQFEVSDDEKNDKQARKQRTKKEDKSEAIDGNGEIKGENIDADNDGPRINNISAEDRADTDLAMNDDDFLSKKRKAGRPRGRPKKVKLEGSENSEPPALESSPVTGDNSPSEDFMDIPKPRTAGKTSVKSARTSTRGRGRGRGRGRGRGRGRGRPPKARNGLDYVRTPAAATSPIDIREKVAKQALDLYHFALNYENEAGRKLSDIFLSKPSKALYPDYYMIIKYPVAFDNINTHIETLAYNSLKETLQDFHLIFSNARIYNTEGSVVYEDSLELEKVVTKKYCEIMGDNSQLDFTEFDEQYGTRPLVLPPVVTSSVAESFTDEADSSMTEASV

As for B1, the binding result with Swi3 and with Snf5 was “binds” throughout.
Consider B2, for which the binding result in the data set with Swi1 and with Swi3 was “binds” each time.
As to B3, the binding result in the data set with Snf2, with Swi1 and in the data set with Snf5 was “binds” in each case. Moreover, the “stoichiometry N” value in “cryo-EM structure” came out at 2.
